# Results as given in PMC11211324 (Cell Discovery, 2024).
# How the values were obtained:
# purified KRAS [1] = target: T1, purified KRAS (Homo sapiens (assumed), isoform 2B …, UniProt P01116-2, biotin (chemically labelled with EZ-link-Sulfo-NHS-biotin) in the BLI assay only)
# purified KRAS [2] = target: T1, purified KRAS; assay: BLI; biotinylated KRAS immobilised on streptavidin biosensors, KDCs (TKD, TKDm) in solution in a 2-fold dilution series; Octet Red96, 30 °C, PBST (1x PBS, 0.1% Tween 20); 100 s association, 200 s dissociation; 1:1 model, global fit; details: both partners purified
# purified NRAS = target: T2, purified NRAS (Homo sapiens (assumed), UniProt P01111); assay: BLI; TKD with purified HRAS or NRAS; Octet Red96, 30 °C, PBST; which partner was on the biosensor is not clearly told; details: both partners purified
# T2 construct: NRAS, purified, bought; Catalogue numbers are printed in the order HRAS/NRAS; source: bought: MedChemExpress
# purified HRAS = target: T3, purified HRAS (Homo sapiens (assumed), UniProt P01112); assay: as above; details: both partners purified
# T3 construct: HRAS, purified, bought; Catalogue numbers are printed in the order HRAS/NRAS; source: bought: MedChemExpress
# T3 sequence (P01112 whole entry): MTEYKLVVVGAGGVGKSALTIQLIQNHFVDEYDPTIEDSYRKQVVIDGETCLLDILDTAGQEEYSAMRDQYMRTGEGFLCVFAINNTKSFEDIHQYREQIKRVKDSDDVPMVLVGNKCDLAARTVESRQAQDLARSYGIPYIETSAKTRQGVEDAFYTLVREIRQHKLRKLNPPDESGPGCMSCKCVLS
# T1 sequence (P01116 whole entry, canonical isoform): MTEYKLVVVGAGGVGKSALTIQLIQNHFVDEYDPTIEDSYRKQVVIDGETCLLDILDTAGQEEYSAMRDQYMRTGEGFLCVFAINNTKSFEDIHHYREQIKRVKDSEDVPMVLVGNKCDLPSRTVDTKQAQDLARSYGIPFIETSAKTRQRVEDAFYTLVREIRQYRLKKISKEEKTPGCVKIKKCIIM
# T2 sequence (P01111 whole entry): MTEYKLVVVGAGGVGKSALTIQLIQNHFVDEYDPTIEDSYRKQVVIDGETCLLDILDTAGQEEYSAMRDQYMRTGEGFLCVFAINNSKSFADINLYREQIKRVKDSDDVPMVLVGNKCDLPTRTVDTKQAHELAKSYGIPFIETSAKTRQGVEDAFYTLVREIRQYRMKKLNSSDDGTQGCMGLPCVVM
Binder,binding result (purified KRAS [1]),also measured
4 (VHH) VHH: DVQLQESGGGLVQPGGSLRLSCAASGFTFGNTGMSWVRQAPGKGLEWVSGISSGGAFSFYADSVKGRFTGSDNSAKNTVYLQMNSLQPEDTGVYYCAAGPRVALLTTPWTNPQSYHYWGQGTQVTVSS,binds,–
2 (VHH) VHH: DVQLQESGGGLVQAGGSLRLSCVAPARTVSTYPTGWFRRAPGKEREFVARINFSGGITNYADSVKGRFTISRNNTKNTVYLQMNSLKPEDTAVYYCGGGSTTWADGIPINFDYWGQGTQVTVSS,binds,–
"TKDm (negative control of TKD with mutant CTM peptide) (VHH, cancer cell-penetrating peptide BR2 (derived from buforin IIb); KRAS nanobody, same as in TKD; also called TKDm-His; source: for co-IP the purified protein was added to living cells) VHH: DVQLQESGGGLVQAGGSLRLSCVASGRTFSTYPTGWFRQAPGKEREFVARINLSGGITNYADSVKGRFTISRDNAKNTVYLQMNSLKPEDTAVYYCGGGSTTWAGGIPTNFDYWGQGTQVTVSS",–,Kd (purified KRAS [2]): 6.6 nM
"tumor-targeting KRAS degrader (TKD) (VHH, cancer cell-penetrating peptide BR2 (derived from buforin IIb); KRAS nanobody from an alpaca immunised with KRAS (1-169 aa); Fusion of BR2, KRAS nanobody and CTM; also called KDC 1; KRAS degrader candidate 1; source: for co-IP the purified protein was added to living cells) VHH: DVQLQESGGGLVQAGGSLRLSCVASGRTFSTYPTGWFRQAPGKEREFVARINLSGGITNYADSVKGRFTISRDNAKNTVYLQMNSLKPEDTAVYYCGGGSTTWAGGIPTNFDYWGQGTQVTVSS",–,binding result (purified NRAS): no binding; binding result (purified HRAS): no binding; Kd (purified KRAS [2]): 6.57 nM
3 (VHH) VHH: DVQLQESGGGLVQPGGSLRLNCAASGFVFSDYAMSWVRQAPGKGLEWVSAIYGGGYNPIYTDSVKGRFTISRDNAKNTLYLQIRTLKPEDTGVYYCAKEQTFGTFLNDTYYSPSYYDWGQGTQVTVSS,binds,–

# Now from value to binder, other results behind:
binding result (purified KRAS [1]),Binder,also measured
binds,5 (VHH) VHH: DVQLQESGGGLVQPGGSLRLNCAASGFVFSDYAMSWVRQAPGKGLEWVSAIYGGGYNPIYADSVKGRFTISRDNAKNTLYLQIRTLKPEDTGVYYCAKEQTFGTFLNDTYYSPSYYDWGQGTQVTVSS,–
binds,6 (VHH) VHH: DVQLQESGGGLVEPGGSLRLSCAASGSIFGLDVMGWYRQAPGKQRELVAIITRGGTANYADSGKGRFTISSDYAKKTVSLQMGSLIPEDTAVYYCSALVLGTNYWGQGTQVTVSS,–
